Experimental data published in publication PMC12173945, “Import mechanism of peroxisomal proteins with an N-terminal signal sequence” (Nature Cell Biology, 2025).

Columns and labels:
[1] = system: PEX7–GFP influx into YG hydrogel; experiment: Influx of PEX7–GFP into YG hydrogel in the presence of PEX39 (Fig. 6f-i); type: biochemical, yeast; details: for Percent PEX7-GFP influx (+ PTS2 peptide + PEX5-21) / Percent PEX7-GFP influx (+ PTS2 peptide + PEX5S) / Percent PEX7-GFP influx: 60 min; for Percent PEX7-GFP influx: PEX7-GFP without PTS2 peptide/PEX5
Experimental: Fig. 6 PEX39 can extract PEX7 from the YG phase. a, YG hydrogels were prepared in a glass-bottomed dish and pre-equilibrated with PEX7–GFP. PEX39 was then added to the buffer and a point-scanning confocal microscope was used to follow the PEX7–GFP fluorescence over time. b, PEX7–GFP signal in the gel over time at the indicated molar ratios of wild-type PEX39 (relative to PEX7). The mean (bold line) and range (shading) of three experiments are shown. c, As in b using a fourfold excess of wild-type (WT) PEX39 or mutants harbouring alanines in place of the APH (∆APH), the RPWE motif (∆RPWE) or both (∆APH + ∆RPWE). d, As in b using PEX7–GFP or PEX5–GFP and a fourfold excess of wild-type PEX39. e, As in b using a fourfold excess of PTS2 peptide and the PEX7-binding chimaeric receptor PEX5-21 (left) or PTS2 peptide and the non-PEX7-binding receptor isoform PEX5S (right). Wild-type PEX39 was titrated as indicated. f, YG hydrogel droplets were incubated with PEX7–GFP in the presence of PEX39. The effect of PEX39 on the influx of PEX7–GFP into the gel was then assessed using a point-scanning confocal microscope. g, PEX7–GFP influx in the presence of the indicated molar ratios of wild-type PEX39 (relative to PEX7) with or without a fourfold excess of PTS2 peptide and either PEX5S or PEX5-21. The mean (bars) and individual values (circles) of three experiments are shown. h, As in g using PEX7–GFP or PEX5–GFP and the indicated molar ratios of wild-type PEX39. i, As in g using wild-type PEX39 or the indicated mutants. Source numerical data are provided. Source data
A solution of the purified wild-type YG-domain polypeptide (or the variant lacking the KPWE motif) was concentrated to 2 mM in 50 mM HEPES·NaOH pH 7.8 at RT, 2 M urea and 2 mM TCEP. Aliquots of 2 µl were then spotted on the bottom of multiple wells of a 96-well glass-bottomed plate (Cellvis, P96-1.5H-N), which was then sealed with a gas-impermeable AlumaSeal II film (Hampton Research, HR8-069) to prevent desiccation and incubated at RT for 24 h. Before each assay, the resulting gels were equilibrated overnight at RT in a 100-fold excess of Assay Buffer (25 mM HEPES·NaOH pH 7.8 at RT, 150 mM NaCl and 1 mM TCEP). A 0.5 µM solution of fluorescently labelled protein in Assay Buffer was then added to the samples, with or without additional components at the concentrations indicated in the text, and incubated at RT. Gels were imaged at the times indicated in the text using a Nikon A1R point-scanning confocal system consisting of an inverted Nikon Eclipse Ti microscope and a Nikon ×20 0.75 NA Plan Apo air objective. The objective was centred on the gel edge and focus was maintained 5 µm above the glass surface using the Nikon Perfect Focus System. Fluorescence was excited through a 405/488/561/647 quad-band dichroic (Chroma), using a 488-nm solid-state laser (Coherent) and a galvano scanner. A 50-nm emission band was collected on a gallium arsenide phosphide detector, using an ET525/50m (525 ± 25 nm) single-band bandpass filter (Chroma) and a pinhole dilated to 0.9 Airy units. Images were acquired using the Nikon NIS-Elements software with a pixel size of 1 µm and a 12-bit digitizer. Imaging parameters were configured to maximize the SNR while avoiding saturation. All samples intended to be compared were imaged using identical acquisition settings.

[2] = system: PEX5–GFP influx into YG hydrogel; experiment: Influx of PEX5–GFP into YG hydrogel in the presence of PEX39 (Fig. 6h); type: biochemical, Xenopus laevis
Experimental: Fig. 6 PEX39 can extract PEX7 from the YG phase. a, YG hydrogels were prepared in a glass-bottomed dish and pre-equilibrated with PEX7–GFP. PEX39 was then added to the buffer and a point-scanning confocal microscope was used to follow the PEX7–GFP fluorescence over time. b, PEX7–GFP signal in the gel over time at the indicated molar ratios of wild-type PEX39 (relative to PEX7). […] The effect of PEX39 on the influx of PEX7–GFP into the gel was then assessed using a point-scanning confocal microscope. g, PEX7–GFP influx in the presence of the indicated molar ratios of wild-type PEX39 (relative to PEX7) with or without a fourfold excess of PTS2 peptide and either PEX5S or PEX5-21. […]
A solution of the purified wild-type YG-domain polypeptide (or the variant lacking the KPWE motif) was concentrated to 2 mM in 50 mM HEPES·NaOH pH 7.8 at RT, 2 M urea and 2 mM TCEP. […] Fluorescence was excited through a 405/488/561/647 quad-band dichroic (Chroma), using a 488-nm solid-state laser (Coherent) and a galvano scanner. […]

yeast PEX7 = experiment: Bead-binding assay: PEX39 and PEX7 (Fig. 5c, Extended Data Fig. 9a); design: species or system yeast (S. cerevisiae); details: PEX39-coated beads
From the text: Cysteine-containing peptides were covalently conjugated to thiol-reactive SulfoLink coupling resin (Thermo Fisher, catalogue number 20401) according to the manufacturer’s instructions. The prepared beads were then mixed with Assay Buffer containing the fluorescently labelled protein as well as additional components indicated in the text, and the resulting bead suspensions were transferred to a 384-well glass-bottomed plate (Cellvis, P384-1.5H-N). GST-fusion proteins were instead mixed with glutathione agarose 4B (Prometheus, 20-543) in Assay Buffer containing the fluorescently labelled protein and additional components indicated in the text; the resulting bead suspensions were then transferred to a glass-bottomed plate as above. The plates were incubated at RT for the durations specified in the text and directly imaged on the spinning-disk confocal platform described earlier for peroxisomal import reactions in Xenopus egg extract. Note that imaging the beads directly in the binding reaction preserves the equilibrium and thereby allows even weak interactions to be detected. Fluorescence was collected through a Nikon ×10 0.45 NA Plan Apo air objective, and images were acquired using the Nikon NIS-Elements software and a 16-bit digitizer without binning. Imaging parameters were configured to maximize the SNR while avoiding saturation. […]

PEX7–GFP in YG hydrogel = experiment: YG hydrogel release assay, PEX7–GFP (Fig. 6a-c,e); type: biochemical, yeast
Experimental: YG hydrogels were prepared in a glass-bottomed plate as described earlier and equilibrated for 3 h at RT in Assay Buffer containing 0.5 µM PEX7–GFP or PEX5–GFP with or without PTS2 peptide and receptor at the concentrations specified in the text. Following the initial incubation, the hydrogels were imaged on a Nikon A1R point-scanning confocal system, as described earlier, with a Nikon ×10 0.45 NA Plan Apo air objective, a pinhole dilated to 1.4 Airy units and a pixel size of 2 µm. A solution of purified PEX39 was then spiked into each reaction and the hydrogels imaged every 2 min for an additional 1 h at RT.
For the PEX7-release assay from YG hydrogels, the total fluorescence within a 30-µm-wide band in the gel extending for 150 µm from the gel edge into the gel was measured at each time point. This distance was sufficient to fully encompass the permeation front of each fluorescent species. The resulting values were then normalized to the total fluorescence inside the gel at the start of the experiment and plotted as a function of time.

B1: PEX39 (WT): PEX39 from S. cerevisiae (GenBank accession no. NP_012546.4) (protein)
chain: MAAGGELSYEELLDHILNNKPIPNIVEVPNVTLDEGLASTPSLRPRPRPWEGQLQHQSHQGSLDKPNISLDIDQESLEGMTSLTRLSECYDIQSKLQINDSDNDNDDNNNDNNKGDGNDDDNNTVTANPTAR
modifications: left off: GST, N-terminal, cleaved
Effect on influx of PEX7–GFP into YG hydrogel ([1]; PEX7–GFP alone or with PTS2 peptide and PEX5S): blocked the influx of PEX7–GFP alone as well as PEX7–GFP in the presence of a PTS2 peptide and PEX5S | Effect on influx of PEX7–GFP into YG hydrogel, PEX5-21 complex ([1]; PEX7–GFP in complex with PTS2 peptide and PEX5-21): much less inhibitory | Percent PEX7-GFP influx (+ PTS2 peptide + PEX5-21) ([1]; PEX39 1×, replicate 1): 66.880% | Percent PEX7-GFP influx (+ PTS2 peptide + PEX5-21) ([1]; PEX39 1×, replicate 2): 83.899% | Percent PEX7-GFP influx (+ PTS2 peptide + PEX5-21) ([1]; PEX39 1×, replicate 3): 114.523% | Percent PEX7-GFP influx (+ PTS2 peptide + PEX5S) ([1]; PEX39 1×, replicate 1): 23.191% | Percent PEX7-GFP influx (+ PTS2 peptide + PEX5S) ([1]; PEX39 1×, replicate 2): 21.558% | Percent PEX7-GFP influx (+ PTS2 peptide + PEX5S) ([1]; PEX39 1×, replicate 3): 32.481% | Percent PEX7-GFP influx ([1]; PEX39 1×, replicate 1): 49.645% | Percent PEX7-GFP influx ([1]; PEX39 1×, replicate 2): 60.527% | Percent PEX7-GFP influx ([1]; PEX39 1×, replicate 3): 62.401% | Percent PEX7-GFP influx (+ PTS2 peptide + PEX5-21) ([1]; PEX39 2×, replicate 1): 50.795% | Percent PEX7-GFP influx (+ PTS2 peptide + PEX5-21) ([1]; PEX39 2×, replicate 2): 68.223% | Percent PEX7-GFP influx (+ PTS2 peptide + PEX5-21) ([1]; PEX39 2×, replicate 3): 111.257% | Percent PEX7-GFP influx (+ PTS2 peptide + PEX5S) ([1]; PEX39 2×, replicate 1): 5.154% | Percent PEX7-GFP influx (+ PTS2 peptide + PEX5S) ([1]; PEX39 2×, replicate 2): 5.013% | Percent PEX7-GFP influx (+ PTS2 peptide + PEX5S) ([1]; PEX39 2×, replicate 3): 4.961% | Percent PEX7-GFP influx ([1]; PEX39 2×, replicate 1): 14.576% | Percent PEX7-GFP influx ([1]; PEX39 2×, replicate 2): 15.433% | Percent PEX7-GFP influx ([1]; PEX39 2×, replicate 3): 14.730% | Percent PEX7-GFP influx (+ PTS2 peptide + PEX5-21) ([1]; PEX39 4×, replicate 1): 53.842% | Percent PEX7-GFP influx (+ PTS2 peptide + PEX5-21) ([1]; PEX39 4×, replicate 2): 47.057% | Percent PEX7-GFP influx (+ PTS2 peptide + PEX5-21) ([1]; PEX39 4×, replicate 3): 58.495% | Percent PEX7-GFP influx (+ PTS2 peptide + PEX5S) ([1]; PEX39 4×, replicate 1): 2.693% | Percent PEX7-GFP influx (+ PTS2 peptide + PEX5S) ([1]; PEX39 4×, replicate 2): 2.263% | Percent PEX7-GFP influx (+ PTS2 peptide + PEX5S) ([1]; PEX39 4×, replicate 3): 2.329% | Percent PEX7-GFP influx ([1]; PEX39 at 4× molar ratio, replicate 1): 7.357% | Percent PEX7-GFP influx ([1]; PEX39 at 4× molar ratio, replicate 2): 5.802% | Percent PEX7-GFP influx ([1]; PEX39 at 4× molar ratio, replicate 3): 7.696% | Effect on influx of PEX5–GFP into YG hydrogel [2]: did not prevent the influx of PEX5–GFP | Recruitment / binding of PEX7 in words (yeast PEX7): could recruit PEX7–GFP | Extraction of PEX7–GFP from YG hydrogel (PEX7–GFP in YG hydrogel; PEX39 or mutants added to preloaded hydrogel): rapidly depleted PEX7–GFP from the hydrogel in a dose-dependent manner | Extraction of PEX7–GFP from YG hydrogel, PEX5-21 complex (PEX7–GFP in YG hydrogel; with PTS2 peptide and PEX5-21): unable to efficiently extract PEX7–GFP | Extraction of PEX7–GFP from YG hydrogel, PEX5S (PEX7–GFP in YG hydrogel; with PTS2 peptide and PEX5S): readily extracted
